The numbers were not newly measured in paper PMC3654037, which cites them from elsewhere.

For orientation: Kd means the equilibrium constant for the complex coming apart.

Data set [1] concerns the target CD86 (Homo sapiens) (UniProt P42081).
For data set [2], the target named is nectin-1 (Homo sapiens) (UniProt Q15223).
The target in data set [3] is nectin-2 (Homo sapiens) (UniProt Q92692).
The target in data set [4] is CD48 (Homo sapiens) (UniProt P09326).
Data set [5] concerns the target nectin-4 (Homo sapiens) (UniProt Q96NY8).
In data set [6] the target is CD58 (Homo sapiens) (UniProt P19256).
UniProt P19256, sequence (P19256 29-215): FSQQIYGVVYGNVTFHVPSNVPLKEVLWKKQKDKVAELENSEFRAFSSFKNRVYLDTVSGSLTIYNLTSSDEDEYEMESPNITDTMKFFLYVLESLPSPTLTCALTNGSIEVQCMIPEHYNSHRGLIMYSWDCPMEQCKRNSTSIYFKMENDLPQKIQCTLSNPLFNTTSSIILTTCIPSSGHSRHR

UniProt P42081, sequence (P42081 24-247): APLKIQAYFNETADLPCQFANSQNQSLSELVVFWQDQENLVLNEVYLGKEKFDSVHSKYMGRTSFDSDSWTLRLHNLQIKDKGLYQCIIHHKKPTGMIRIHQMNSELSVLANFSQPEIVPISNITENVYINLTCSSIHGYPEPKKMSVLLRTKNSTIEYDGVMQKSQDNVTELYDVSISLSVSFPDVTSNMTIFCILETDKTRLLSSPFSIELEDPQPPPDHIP
UniProt P09326, sequence (P09326 27-220): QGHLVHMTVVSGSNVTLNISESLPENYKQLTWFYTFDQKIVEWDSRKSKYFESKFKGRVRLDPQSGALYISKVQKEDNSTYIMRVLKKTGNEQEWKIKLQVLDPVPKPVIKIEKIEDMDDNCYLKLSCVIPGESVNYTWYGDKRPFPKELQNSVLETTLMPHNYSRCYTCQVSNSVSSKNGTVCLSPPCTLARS

Take CD28 (from UniProt P10747): the Kd in data set [1] is 20 µM.

As for nectin-1 (from UniProt Q15223), the Kd in data set [2] is 17.5 µM.

For the substance nectin-2 (from UniProt Q92692), the Kd in data set [3] was 0.4 µM.

Take 2B4 (from UniProt Q9BZW8): in data set [4], the equilibrium dissociation constant (Kd) was 10 µM.

For the substance nectin-4 (from UniProt Q96NY8), in data set [5], the Kd is 153 µM.

In the case of CD2 (from UniProt P06729), the Kd in data set [6] is 10 µM.
